Measured values published in PMC11724882, “Molecular basis for the enzymatic inactivity of class III glutaredoxin ROXY9 on standard glutathionylated substrates” (Nature Communications, 2025).
“And” between values parts separate entries of the source, which are not always exact repeats. Equal entries are not always repeated.

Key:
Cys23 [1] = target: Cys23 (UniProt position 23, FSKTYCPYCVR); assay: chemical modification; conditions: buffers at a normality of 0.1; no added salt stated; citrate pH 2.0-6.0; KH2PO4/Na2HPO4 pH 6.5-8.0; Na2B4O7 pH 8.5-10.0. Protein was desalted into 5 mM HEPES pH 7.0. 10 µl protein was mixed with 40 µl pH buffer and 5 µl 100 mM IAM.; Pre-reduced with 10 mM DTT and desalted; no glutathione or other ligand; native protein during the IAM step.
Cys22 [2] = target: Cys22 (UniProt position 23, FIKPTCPFARK); conditions: cited from earlier work
Cys21 [3] = target: Cys21 (UniProt position 21, FTKSSCSLSYA); assay: chemical modification; conditions: buffers at a normality of 0.1; no added salt stated; citrate pH 2.0-6.0; KH2PO4/Na2HPO4 pH 6.5-8.0; Na2B4O7 pH 8.5-10.0. Protein was desalted into 5 mM HEPES pH 7.0. 10 µl protein was mixed with 40 µl pH buffer and 5 µl 100 mM IAM.; Pre-reduced with 10 mM DTT and desalted; no glutathione or other ligand; native protein during the IAM step.
Cys22 [4] = target: Cys22 (UniProt position 23, FIKPTCPFCRK); conditions: cited from earlier work
Cys23 [5] = target: Cys23 (UniProt position 23, FSKTYCPYSVR); assay: chemical modification; conditions: buffers at a normality of 0.1; no added salt stated; citrate pH 2.0-6.0; KH2PO4/Na2HPO4 pH 6.5-8.0; Na2B4O7 pH 8.5-10.0. Protein was desalted into 5 mM HEPES pH 7.0. 10 µl protein was mixed with 40 µl pH buffer and 5 µl 100 mM IAM.; Pre-reduced with 10 mM DTT and desalted; no glutathione or other ligand; native protein during the IAM step.
Cys21 [6] = target: Cys21 (UniProt position 21, FTKSSCCLCYA); assay: chemical modification; conditions: buffers at a normality of 0.1; no added salt stated; citrate pH 2.0-6.0; KH2PO4/Na2HPO4 pH 6.5-8.0; Na2B4O7 pH 8.5-10.0. Protein was desalted into 5 mM HEPES pH 7.0. 10 µl protein was mixed with 40 µl pH buffer and 5 µl 100 mM IAM.; Pre-reduced with 10 mM DTT and desalted; no glutathione or other ligand; native protein during the IAM step.
Cys22 [7] = target: Cys22 (UniProt position 23, FIKPTCPFSRK); conditions: cited from earlier work
[8] = target: the molecule itself; assay: SEC; analytical gel filtration of the affinity-purified strep-MBP fusion proteins (purified in the presence of 5 mM GSH); strep-MBP-ROXY9 also after DTT treatment

Molecule: Glutaredoxin GRXC2 (class I GRX), strep-MBP fusion, wild type (Arabidopsis thaliana)
- pKa (Cys23 [1]): between 3.0 and 3.5

Molecule: Pig glutaredoxin (liver thioltransferase) C25A (Sus scrofa; C25A)
- pKa (Cys22 [2]): 5.9

Molecule: Glutaredoxin ROXY9 single-cysteine variant (only Cys21 retained), strep-MBP fusion (Arabidopsis thaliana; C22S;C24S;C49S;C61S)
- pKa (Cys21 [3]): between 6 and 7

Molecule: Pig glutaredoxin (liver thioltransferase), wild type (Sus scrofa)
- pKa (Cys22 [4]): 3.8

Molecule: Glutaredoxin GRXC2-CSS variant (only CysA retained), strep-MBP fusion (Arabidopsis thaliana; C26S;C80S)
- pKa (Cys23 [5]): between 3.5 and 4.0

Molecule: Glutaredoxin ROXY9 (class III / CC-type GRX, CEPD2), strep-MBP fusion, wild type (Arabidopsis thaliana)
- pKa (Cys21 [6]): between pH 4 and 4.5

Molecule: Pig glutaredoxin (liver thioltransferase) C25S (Sus scrofa; C25S)
- pKa (Cys22 [7]): 4.9

B1: strep-MBP-ROXY9 (enzyme, Arabidopsis thaliana, UniProt O82255 1-102, looked up)
chain: MDKVMRMSSEKGVVIFTKSSCCLCYAVQILFRDLRVQPTIHEIDNDPDCREIEKALLRLGCSTAVPAVFVGGKLVGSTNEVMSLHLSGSLVPLIKPYQSILY
notes: class III glutaredoxin ROXY9, Arabidopsis thaliana, AT2G47880; ORF inserted into a variant of MacroLab vector 438-C (modified pFastBac, Addgene plasmid 48296) in which the His-tag was exchanged for Strep-tag II; a TEV site lies between the tag and ROXY9; also called class III GRX ROXY9; CEPD2; source: Hi5 insect cells (baculovirus), purified (MBPTrap, eluted with maltose, 5 mM GSH in buffer)
- stoichiometry N [8]: 2 and 3
